In patent publication US20100260668A1 (published 2010) one finds Kd, koff and kon data, which are given here for five molecules.

The target in experiment [1] is T1, VEGF (UniProt P15692-4 27-191).
T1 construct: Bought reagent; also called vascular endothelial growth factor
In words: SPR (Biacore), DVD-Ig captured, VEGF in solution. Background: In SPR one partner is held on a chip, and binding of the other changes the refractive index at the surface.
T1 sequence (P15692 other isoform, or with tags, fused parts or gaps limits assumed): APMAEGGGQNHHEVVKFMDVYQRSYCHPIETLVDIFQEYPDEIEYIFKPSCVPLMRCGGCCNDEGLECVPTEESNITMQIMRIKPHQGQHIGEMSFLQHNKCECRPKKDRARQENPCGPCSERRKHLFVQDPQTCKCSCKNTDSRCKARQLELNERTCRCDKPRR

For experiment [2], the target named is T2, VEGF (UniProt P15692-4 27-191).
T2 construct: Bought reagent; also called vascular endothelial growth factor
As to the kind of experiment: BIACORE SPR.
T2 sequence (P15692 other isoform, or with tags, fused parts or gaps limits assumed): as above

B1: DVD496 (bispecific antibody, human IgG1, kappa)
heavy: not shown
light: DIQMTQSPSSLSASVGDRVTITCRASQDVSTAVAWYQQKPGKAPKLLIYSASFLYSGVPSRFSGSGSGTDFTLTISSLQPEDFATYYCQQSYTTPPTFGQGTKVEIKRTVAAPSVFIFPPDIQMTQSSSYLSVSLGGRVTITCKASDHINNWLAWYQQKPGNAPRLLISGATSLETGVPSRFSGSGSGKDYTLSITSLQTEDVATYYCQQYWSIPLTFGAGTKLELKRTVAAPSVFIFPPSDEQLKSGTASVVCLLNNFYPREAKVQWKVDNALQSGNSQESVTEQDSKDSTYSLSSTLTLSKADYEKHKVYACEVTHQGLSSPVTKSFNRGEC
notes: DVD-Ig; N-term; VD AB070 (VEGF), C-term; VD AB072 (DLL4); HC linker long, LC linker long; also called DVD496H; DVD496L
A word on the Kd: it is the concentration at which binding is half-saturated. The term koff denotes the first-order rate constant of dissociation. A high value points to a short-lived complex. Broadly, the kon is a measure of how fast the partners come together. A low value points to slow association. With B1, in the experiment with VEGF [1], binding was characterised by a dissociation constant (Kd) of 0.311 nM, the off-rate (koff) is 0.00658 s⁻¹ and the kon came out at 2.12e+07 M⁻¹ s⁻¹.

B2: DVD508 (bispecific antibody, human IgG1, kappa)
heavy: not shown
light: DIQMTQSPSSLSASVGDRVTITCRASQDVSTAVAWYQQKPGKAPKLLIYSASFLYSGVPSRFSGSGSGTDFTLTISSLQPEDFATYYCQQSYTTPPTFGQGTKVEIKRTVAAPSVFIFPPDIQMTQSSSYLSVSLGGRVTITCKASDHINNWLAWYQQKPGNAPRLLISGATSLETGVPSRFSGSGSGKDYTLSITSLQTEDVATYYCQQYWSIPLTFGAGTKLELKRTVAAPSVFIFPPSDEQLKSGTASVVCLLNNFYPREAKVQWKVDNALQSGNSQESVTEQDSKDSTYSLSSTLTLSKADYEKHKVYACEVTHQGLSSPVTKSFNRGEC
notes: DVD-Ig; N-term; VD AB070 (VEGF), C-term; VD AB072 (DLL4); HC linker short, LC linker long; also called DVD508H; DVD508L
B2: in the experiment with VEGF [1], the Kd came to 0.162 nM, the koff worked out at 0.000213 s⁻¹ and the kon was 1.31e+06 M⁻¹ s⁻¹.

B3: DVD043 (bispecific antibody, human IgG1, kappa)
heavy: not shown
light: DIQMTQSPSSLSASVGDRVTITCSASQDISNYLNWYQQKPGKAPKVLIYFTSSLHSGVPSRFSGSGSGTDFTLTISSLQPEDFATYYCQQYSTVPWTFGQGTKVEIKRTVAAPDIQMTQSPSSLSASVGDRVTITCRASQDVSTAVAWYQQKPGKAPKLLIYSASFLYSGVPSRFSGSGSGTDFTLTISSLQPEDFATTYYCQQSYTGTVTFGQGTKVEIKRTVAAPSVFIFPPSDEQLKSGTASVVCLLNNFYPREAKVQWKVDNALQSGNSQESVTEQDSKDSTYSLSSTLTLSKADYEKHKVYACEVTHQGLSSPVTKSFNRGEC
notes: DVD-Ig; N-term; AB014 (VEGF), C-term; AB015 (DLL4); HC linker short, LC linker short; also called DVD043H; DVD043L
In the experiment with VEGF [2], B3 had a dissociation constant Kd of 0.0746 nM, a koff of 0.000125 s⁻¹ and a kon of 1.68e+06 M⁻¹ s⁻¹.

B4: DVD490 (bispecific antibody, human IgG1, kappa)
heavy: not shown
light: DIQMTQSPSSLSASVGDRVTITCRASQDVSTAVAWYQQKPGKAPKLLIYSASFLYSGVPSRFSGSGSGTDFTLTISSLQPEDFATYYCQQSYTTPPTFGQGTKVEIKRTVAAPDIQMTQSSSYLSVSLGGRVTITCKASDHINNWLAWYQQKPGNAPRLLISGATSLETGVPSRFSGSGSGKDYTLSITSLQTEDVATYYCQQYWSIPLTFGAGTKLELKRTVAAPSVFIFPPSDEQLKSGTASVVCLLNNFYPREAKVQWKVDNALQSGNSQESVTEQDSKDSTYSLSSTLTLSKADYEKHKVYACEVTHQGLSSPVTKSFNRGEC
notes: DVD-Ig; N-term; VD AB070 (VEGF), C-term; VD AB072 (DLL4); HC linker short, LC linker short; also called DVD490H; DVD490L
For the molecule B4, in the experiment with VEGF [1], binding was put at a Kd of 0.189 nM, the dissociation rate constant (koff) amounted to 0.000169 s⁻¹ and the kon was 894000 M⁻¹ s⁻¹.

B5: DVD502 (bispecific antibody, human IgG1, kappa)
heavy: not shown
light: DIQMTQSPSSLSASVGDRVTITCRASQDVSTAVAWYQQKPGKAPKLLIYSASFLYSGVPSRFSGSGSGTDFTLTISSLQPEDFATYYCQQSYTTPPTFGQGTKVEIKRTVAAPDIQMTQSSSYLSVSLGGRVTITCKASDHINNWLAWYQQKPGNAPRLLISGATSLETGVPSRFSGSGSGKDYTLSITSLQTEDVATYYCQQYWSIPLTFGAGTKLELKRTVAAPSVFIFPPSDEQLKSGTASVVCLLNNFYPREAKVQWKVDNALQSGNSQESVTEQDSKDSTYSLSSTLTLSKADYEKHKVYACEVTHQGLSSPVTKSFNRGEC
notes: DVD-Ig; N-term; VD AB070 (VEGF), C-term; VD AB072 (DLL4); HC linker long, LC linker short; also called DVD502H; DVD502L
In the experiment with VEGF [1], B5 returned an equilibrium dissociation constant (Kd) of 0.265 nM, a koff of 0.000231 s⁻¹ and a kon of 871000 M⁻¹ s⁻¹.
